Results from US20230406935A1 (F STAR THERAPEUTICS, published 2023).

B1: FS17-33-451AA/MSL109 mock mAb^2 (bispecific antibody, human IgG1, kappa, L234A L235A)
heavy: EEQVLESGGGLVKPGGSLRLSCAASGFTFSPYSVFWVRQAPGKGLEWVSSINSDSTYKYYADSVKGRFTISRDNAENSIFLQMNSLRAEDTAVYYCARDRSYYAFSSGSLSDYYYGLDVWGQGTTVIVSSASTKGPSVFPLAPSSKSTSGGTAALGCLVKDYFPEPVTVSWNSGALTSGVHTFPAVLQSSGLYSLSSVVTVPSSSLGTQTYICNVNHKPSNTKVDKKVEPKSCDKTHTCPPCPAPEAAGGPSVFLFPPKPKDTLMISRTPEVTCVVVDVSHEDPEVKFNWYVDGVEVHNAKTKPREEQYNSTYRVVSVLTVLHQDWLNGKEYKCKVSNKALPAPIEKTISKAKGQPREPQVYTLPPSRDEEGYWVSLTCLVKGFYPSDIAVEWESNGEPQYWAKTTPPVLDSDGSFFLYSKLTVSNWRWQLDDVFSCSVMHEALHNHYTQKSLSLSPGK
light: DIVMTQSPLSLSVTPGEPASISCRSSQSLLHTNGYNYLDWYVQKPGQSPQLLIYLASNRASGVPDRFSGSGSGTDFTLKISRVETEDVGVYYCMQALQIPRTFGQGTKVEIKRTVAAPSVFIFPPSDEQLKSGTASVVCLLNNFYPREAKVQWKVDNALQSGNSQESVTEQDSKDSTYSLSSTLTLSKADYEKHKVYACEVTHQGLSSPVTKSFNRGEC
notes: also called FS17-33-451AA/MSL109 (parent 2)
B2: FS17-33-539AA/MSL109 (bispecific antibody, human IgG1, kappa, L234A L235A)
heavy: EEQVLESGGGLVKPGGSLRLSCAASGFTFSPYSVFWVRQAPGKGLEWVSSINSDSTYKYYADSVKGRFTISRDNAENSIFLQMNSLRAEDTAVYYCARDRSYYAFSSGSLSDYYYGLDVWGQGTTVIVSSASTKGPSVFPLAPSSKSTSGGTAALGCLVKDYFPEPVTVSWNSGALTSGVHTFPAVLQSSGLYSLSSVVTVPSSSLGTQTYICNVNHKPSNTKVDKKVEPKSCDKTHTCPPCPAPEAAGGPSVFLFPPKPKDTLMISRTPEVTCVVVDVSHEDPEVKFNWYVDGVEVHNAKTKPREEQYNSTYRVVSVLTVLHQDWLNGKEYKCKVSNKALPAPIEKTISKAKGQPREPQVYTLPPSRDETGYWVSLTCLVKGFYPSDIAVEWESNGEPQYWAKTTPPVLDSDGSFFLYSKLTVSNWRWQLGDVFSCSVMHEALRNHYTQKSLSLSPGK
light: DIVMTQSPLSLSVTPGEPASISCRSSQSLLHTNGYNYLDWYVQKPGQSPQLLIYLASNRASGVPDRFSGSGSGTDFTLKISRVETEDVGVYYCMQALQIPRTFGQGTKVEIKRTVAAPSVFIFPPSDEQLKSGTASVVCLLNNFYPREAKVQWKVDNALQSGNSQESVTEQDSKDSTYSLSSTLTLSKADYEKHKVYACEVTHQGLSSPVTKSFNRGEC
B3: FS17-33-449AA/HelD1.3 mock mAb^2 (bispecific antibody, human IgG1, kappa, L234A L235A)
heavy: QVQLQESGPGLVRPSQTLSLTCTVSGSTFSGYGVNWVRQPPGRGLEWIGMIWGDGNTDYNSALKSRVTMLVDTSKNQFSLRLSSVTAADTAVYYCARERDYRLDYWGQGSLVTVSSASTKGPSVFPLAPSSKSTSGGTAALGCLVKDYFPEPVTVSWNSGALTSGVHTFPAVLQSSGLYSLSSVVTVPSSSLGTQTYICNVNHKPSNTKVDKKVEPKSCDKTHTCPPCPAPEAAGGPSVFLFPPKPKDTLMISRTPEVTCVVVDVSHEDPEVKFNWYVDGVEVHNAKTKPREEQYNSTYRVVSVLTVLHQDWLNGKEYKCKVSNKALPAPIEKTISKAKGQPREPQVYTLPPSRDETGYWVSLTCLVKGFYPSDIAVEWESNGEPQYWAKTTPPVLDSDGSFFLYSKLTVSNWRWQLDDVFSCSVMHEALHNHYTQKSLSLSPGK
light: DIQMTQSPASLSASVGETVTITCRASGNIHNYLAWYQQKQGKSPQLLVYNAKTLADGVPSRFSGSGSGTQYSLKINSLQPEDFGSYYCQHFWSTPRTFGGGTKLEIKRTVAAPSVFIFPPSDEQLKSGTASVVCLLNNFYPREAKVQWKVDNALQSGNSQESVTEQDSKDSTYSLSSTLTLSKADYEKHKVYACEVTHQGLSSPVTKSFNRGEC
B4: FS17-33-451/HelD1.3 mock mAb^2 (without LALA) (bispecific antibody, human IgG1, kappa)
heavy: QVQLQESGPGLVRPSQTLSLTCTVSGSTFSGYGVNWVRQPPGRGLEWIGMIWGDGNTDYNSALKSRVTMLVDTSKNQFSLRLSSVTAADTAVYYCARERDYRLDYWGQGSLVTVSSASTKGPSVFPLAPSSKSTSGGTAALGCLVKDYFPEPVTVSWNSGALTSGVHTFPAVLQSSGLYSLSSVVTVPSSSLGTQTYICNVNHKPSNTKVDKKVEPKSCDKTHTCPPCPAPELLGGPSVFLFPPKPKDTLMISRTPEVTCVVVDVSHEDPEVKFNWYVDGVEVHNAKTKPREEQYNSTYRVVSVLTVLHQDWLNGKEYKCKVSNKALPAPIEKTISKAKGQPREPQVYTLPPSRDEEGYWVSLTCLVKGFYPSDIAVEWESNGEPQYWAKTTPPVLDSDGSFFLYSKLTVSNWRWQLDDVFSCSVMHEALHNHYTQKSLSLSPGK
light: DIQMTQSPASLSASVGETVTITCRASGNIHNYLAWYQQKQGKSPQLLVYNAKTLADGVPSRFSGSGSGTQYSLKINSLQPEDFGSYYCQHFWSTPRTFGGGTKLEIKRTVAAPSVFIFPPSDEQLKSGTASVVCLLNNFYPREAKVQWKVDNALQSGNSQESVTEQDSKDSTYSLSSTLTLSKADYEKHKVYACEVTHQGLSSPVTKSFNRGEC
B5: FS17-33-449/HelD1.3 mock mAb^2 (without LALA) (bispecific antibody, human IgG1, kappa)
heavy: QVQLQESGPGLVRPSQTLSLTCTVSGSTFSGYGVNWVRQPPGRGLEWIGMIWGDGNTDYNSALKSRVTMLVDTSKNQFSLRLSSVTAADTAVYYCARERDYRLDYWGQGSLVTVSSASTKGPSVFPLAPSSKSTSGGTAALGCLVKDYFPEPVTVSWNSGALTSGVHTFPAVLQSSGLYSLSSVVTVPSSSLGTQTYICNVNHKPSNTKVDKKVEPKSCDKTHTCPPCPAPELLGGPSVFLFPPKPKDTLMISRTPEVTCVVVDVSHEDPEVKFNWYVDGVEVHNAKTKPREEQYNSTYRVVSVLTVLHQDWLNGKEYKCKVSNKALPAPIEKTISKAKGQPREPQVYTLPPSRDETGYWVSLTCLVKGFYPSDIAVEWESNGEPQYWAKTTPPVLDSDGSFFLYSKLTVSNWRWQLDDVFSCSVMHEALHNHYTQKSLSLSPGK
light: DIQMTQSPASLSASVGETVTITCRASGNIHNYLAWYQQKQGKSPQLLVYNAKTLADGVPSRFSGSGSGTQYSLKINSLQPEDFGSYYCQHFWSTPRTFGGGTKLEIKRTVAAPSVFIFPPSDEQLKSGTASVVCLLNNFYPREAKVQWKVDNALQSGNSQESVTEQDSKDSTYSLSSTLTLSKADYEKHKVYACEVTHQGLSSPVTKSFNRGEC
B6: FS17-33-451AA/HelD1.3 mock mAb^2 (bispecific antibody, human IgG1, kappa, L234A L235A)
heavy: QVQLQESGPGLVRPSQTLSLTCTVSGSTFSGYGVNWVRQPPGRGLEWIGMIWGDGNTDYNSALKSRVTMLVDTSKNQFSLRLSSVTAADTAVYYCARERDYRLDYWGQGSLVTVSSASTKGPSVFPLAPSSKSTSGGTAALGCLVKDYFPEPVTVSWNSGALTSGVHTFPAVLQSSGLYSLSSVVTVPSSSLGTQTYICNVNHKPSNTKVDKKVEPKSCDKTHTCPPCPAPEAAGGPSVFLFPPKPKDTLMISRTPEVTCVVVDVSHEDPEVKFNWYVDGVEVHNAKTKPREEQYNSTYRVVSVLTVLHQDWLNGKEYKCKVSNKALPAPIEKTISKAKGQPREPQVYTLPPSRDEEGYWVSLTCLVKGFYPSDIAVEWESNGEPQYWAKTTPPVLDSDGSFFLYSKLTVSNWRWQLDDVFSCSVMHEALHNHYTQKSLSLSPGK
light: DIQMTQSPASLSASVGETVTITCRASGNIHNYLAWYQQKQGKSPQLLVYNAKTLADGVPSRFSGSGSGTQYSLKINSLQPEDFGSYYCQHFWSTPRTFGGGTKLEIKRTVAAPSVFIFPPSDEQLKSGTASVVCLLNNFYPREAKVQWKVDNALQSGNSQESVTEQDSKDSTYSLSSTLTLSKADYEKHKVYACEVTHQGLSSPVTKSFNRGEC
notes: also called F17-33-451AA/HelD1.3; F17-33-451AA/HELD1.3

Columns and labels:
[1] = target: T1, Human PD-L1 expressed on cells (human, UniProt Q9NZQ7 19-290); assay: cell-based or functional assay
T1 sequence (Q9NZQ7 19-290 limits assumed): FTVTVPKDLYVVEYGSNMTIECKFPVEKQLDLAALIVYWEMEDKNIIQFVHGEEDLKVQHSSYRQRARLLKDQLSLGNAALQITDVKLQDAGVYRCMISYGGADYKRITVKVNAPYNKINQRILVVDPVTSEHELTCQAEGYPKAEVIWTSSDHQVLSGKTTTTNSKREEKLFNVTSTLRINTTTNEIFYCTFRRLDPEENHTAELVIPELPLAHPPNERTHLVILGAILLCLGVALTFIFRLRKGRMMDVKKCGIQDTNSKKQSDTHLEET

[2] = target: T1, Human PD-L1 expressed on cells; assay: cell-based or functional assay; remark: listed apart in the source

Binder	SEB EC50 [1] [nM]	SEB assay (IFNγ release) EC50 [2] [nM]
B1	1.11	
B2	0.97	
B3		0.55
B4		0.852
B5		0.644
B6		1.12
